Reference: patent US20170283834A1, “Processes for Producing A Fermentation Product Using A Fermenting Organism” (Novozymes A/S, priority 2014, published 2017)

How the values were obtained:
[1] = target: T1, aorsin (Aspergillus oryzae, UniProt Q8NK92); experiment: PE001 protease stability, SDS-PAGE after protease treatment; assay type: biochemical
T1 sequence (Q8NK92 216-652): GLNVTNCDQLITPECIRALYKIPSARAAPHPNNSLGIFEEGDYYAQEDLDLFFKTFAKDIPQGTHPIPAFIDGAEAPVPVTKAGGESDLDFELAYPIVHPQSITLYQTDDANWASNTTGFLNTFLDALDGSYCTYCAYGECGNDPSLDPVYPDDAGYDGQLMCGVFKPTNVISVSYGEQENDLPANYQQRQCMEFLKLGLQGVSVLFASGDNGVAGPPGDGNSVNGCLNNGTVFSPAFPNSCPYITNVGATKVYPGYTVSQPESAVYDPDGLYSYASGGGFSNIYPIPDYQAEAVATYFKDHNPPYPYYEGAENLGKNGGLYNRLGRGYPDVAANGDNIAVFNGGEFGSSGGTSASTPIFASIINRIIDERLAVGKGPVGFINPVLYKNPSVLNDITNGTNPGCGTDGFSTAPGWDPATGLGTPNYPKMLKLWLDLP
Procedure: (§1) 40 μl enzyme solutions (1 mg/ml) in 50 mM sodium acetate buffer, pH 4.5, were mixed with 1/10 volume of 1 mg/ml protease solutions such as aspergillopepsin I described in Biochem J. 1975 April; 147(1):45-53, or the commercially available product from Sigma and aorsin described in Biochemical journal [0264-6021] Ichishima yr: 2003 vol:371 iss:Pt 2 pg:541 and incubated at 4 or 32° C. overnight. As a control experiment, H2O was added to the sample instead of proteases. The samples were loaded on SDS-PAGE to see if the glucoamylases are cleaved by proteases.

[2] = tested on: aspergillopepsin I; experiment: as above; assay type: biochemical; conditions: for intact glucoamylase (ca. 70 kDa): aspergillopepsin I
Procedure: as §1

[3] = tested on: host proteases; experiment: Cleavage during cultivation, SDS-PAGE of culture supernatants; parameters: species or system Aspergillus niger
Procedure: Aspergillus transformant of the variant and the wild type Penicillium oxalicum glucoamylase were cultivated in 6-well MT plates containing 4× diluted YP-2% maltose medium supplemented with 10 mM sodium acetate buffer, pH4.5, at 32° C. for 1 week.
The culture supernatants were loaded on SDS-PAGE.

[4] = Glucoamylase activity (AGU) of variant compared to parent; assay type: biochemical; conditions: 37° C., pH 4.3, maltose 100 mM
Procedure: The Novo Glucoamylase Unit (AGU) is defined as the amount of enzyme, which hydrolyzes 1 micromole maltose per minute under the standard conditions 37° C., pH 4.3, substrate: maltose 23.2 mM, buffer: acetate 0.1 M, reaction time 5 minutes.
An autoanalyzer system may be used. Mutarotase is added to the glucose dehydrogenase reagent so that any alpha-D-glucose present is turned into beta-D-glucose. Glucose dehydrogenase reacts specifically with beta-D-glucose in the reaction mentioned above, forming NADH which is determined using a photometer at 340 nm as a measure of the original glucose concentration.
The glucoamylase activity measures as AGU as described above was checked for the purified enzymes of the wild type Penicillium oxalicum and the variant glucoamylase.
The Glucoamylase Unit (AGU) was defined as the amount of enzyme, which hydrolyzes 1 micromole maltose per minute under the standard conditions (37° C., pH 4.3, substrate: maltose 100 mM, buffer: acetate 0.1 M, reaction time 6 minutes).

[5] = Protein thermal unfolding analysis (TSA, Thermal shift assay); assay type: physicochemical
Procedure: Protein thermal unfolding of the T65A and Q327F variants, was monitored using Sypro Orange (In-vitrogen, S-6650) and was performed using a real-time PCR instrument (Applied Biosystems; Step-One-Plus).
In a 96-well plate, 25 microliter micropurified sample in 50 mM Acetate pH4,5 at approx. 100 microgram/ml was mixed (5:1) with Sypro Orange (resulting conc.=5×; stock solution from supplier=5000×). The plate was sealed with an optical PCR seal. The PCR instrument was set at a scan-rate of 76° C. pr. hr, starting at 25° C. and finishing at 96° C.
Protein thermal unfolding of the E501V+Y504T variant, was monitored using Sypro Orange (In-vitrogen, S-6650) and was performed using a real-time PCR instrument (Applied Biosystems; Step-One-Plus).
In a 96-well plate, 15 microliter purified sample in 50 mM Acetate pH4,5 at approx. 50 microgram/ml was mixed (1:1) with Sypro Orange (resulting conc.=5×; stock solution from supplier=5000×) with or without 200 ppm Acarbose (Sigma A8980). The plate was sealed with an optical PCR seal. The PCR instrument was set at a scan-rate of 76 degrees C. pr. hr, starting at 25° C. and finishing at 96° C.
Fluorescence was monitored every 20 seconds using in-built LED blue light for excitation and ROX-filter (610 nm, emission).
Tm-values were calculated as the maximum value of the first derivative (dF/dK) (ref.: Gregory et al; J Biomol Screen 2009 14: 700.)

[6] = Thermostability analysis by Differential Scanning Calorimetry (DSC); assay type: physicochemical
Procedure: . The thermal denaturation temperature, Td (° C.), was taken as the top of the denaturation peak (major endothermic peak) in thermograms (Cp vs. T) obtained after heating enzyme solutions in selected buffers (50 mM Sodium Acetate, pH 4.0 or 4.8) at a constant programmed heating rate of 200K/hr.
Sample- and reference-solutions (approximately 0.3 ml) were loaded into the calorimeter (reference: buffer without enzyme) from storage conditions at 10° C. and thermally pre-equilibrated for 10 minutes at 20° C. prior to DSC scan from 20° C. to 110° C. Denaturation temperatures were determined with an accuracy of approximately +/−1° C.

[7] = tested on: protease; conditions: cited from earlier work

B1: PE001: Penicillium oxalicum glucoamylase SEQ ID NO: 14 with K79V substitution (protein, listed as Penicillium oxalicum)
chain: RPDPKGGNLTPFIHKEGERSLQGILDNLGGRGKKTPGTAAGLFIASPNTENPNYYYTWTRDSALTAKCLIDLFEDSRAVFPIDRKYLETGIRDYKSSQAILQSVSNPSGTLKDGSGLGEPKFEIDLNPFSGAWGRPQRDGPALRATAMITYANYLISHGQKSDVSQVMWPIIANDLAYVGQYWNNTGFDLWEEVDGSSFFTIAVQHRALVEGSQLAKKLGKSCDACDSQPPQILCFLQSFWNGKYITSNINTQASRSGIDLDSVLGSIHTFDPEAACDDATFQPCSARALANHKVYVDSFRSIYKINAGLAEGSAANVGRYPEDVYQGGNPWYLATLGASELLYDALYQWDRLGKLEVSETSLSFFKDFDATVKIGSYSRNSKTYKKLTQSIKSYADGFIQLVQQYTPSNGSLAEQYDRNTAAPLSANDLTWSFASFLTATQRRDAVVPPSWGAKSANKVPTTCSASPVVGTYKAPTATFSSKTKCVPAKDIVPITFYLIENTYYGENVFMSGNITALGNWDAKKGFPLTANLYTQDQNLWFASVEFIPAGTPFEYKYYKVEPNGDITWEKGPNRVFVAPTGCPVQPHSNDVWQF
modifications: mat_peptide (1)..(595) mature Penicillium oxalicum glucoamylase sequence
intact glucoamylase (ca. 70 kDa) ([1]; incubation 4° C. overnight): 100% | intact glucoamylase (ca. 70 kDa) ([1]; incubation 32° C. overnight): 100% | intact glucoamylase (ca. 70 kDa) ([2]; incubation 4° C. overnight): 100% | intact glucoamylase (ca. 70 kDa) ([2]; incubation 32° C. overnight): 100% | SDS-PAGE result after protease treatment ([2]; proteases (aspergillopepsin I, aorsin)): only showed one band corresponding to the intact molecule | cleavage by host proteases during fermentation [3]: yielded only intact molecule | intact glucoamylase (ca. 70 kDa) ([3]; culture supernatant, 32° C., 1 week): 100% | Relative specific activity AGU/mg [4]: 102% | Tm (Deg. Celsius) +/−0.4 ([5]; Table 14a, 50 mM Acetate pH 4,5): 80.3 Deg. Celsius | Tm (Deg. Celsius) +/−0.4 ([5]; Table 14b, Acarbose: + (200 ppm)): 86.9 Deg. Celsius | Tm (Deg. Celsius) +/−0.4 ([5]; Table 14b, Acarbose: −): 79.5 Deg. Celsius | DSC Td (° C.) @ pH 4.0 ([6]; pH 4.0, 50 mM Sodium Acetate): 82.1 °C | DSC Td (° C.) @ pH 4.8 ([6]; pH 4.8, 50 mM Sodium Acetate): 83.4 °C | sensitivity to protease degradation relative to the parent [7]: reduced sensitivity to protease degradation relative to the parent
